This is an account of results in IntAct's records for PubMed 17948060.

B1: G1/S-specific cyclin-D1 (Mus musculus), P25322 (parent)
chain: MEHQLLCCEVETIRRAYPDTNLLNDRVLRAMLKTEETCAPSVSYFKCVQKEIVPSMRKIVATWMLEVCEEQKCEEEVFPLAMNYLDRFLSLEPLKKSRLQLLGATCMFVASKMKETIPLTAEKLCIYTDNSIRPEELLQMELLLVNKLKWNLAAMTPHDFIEHFLSKMPEADENKQTIRKHAQTFVALCATDVKFISNPPSMVAAGSVVAAMQGLNLGSPNNFLSCYRTTHFLSRVIKCDPDCLRACQEQIEALLESSLRQAQQNVDPKATEEEGEVEEEAGLACTPTDVRDVDI
partner: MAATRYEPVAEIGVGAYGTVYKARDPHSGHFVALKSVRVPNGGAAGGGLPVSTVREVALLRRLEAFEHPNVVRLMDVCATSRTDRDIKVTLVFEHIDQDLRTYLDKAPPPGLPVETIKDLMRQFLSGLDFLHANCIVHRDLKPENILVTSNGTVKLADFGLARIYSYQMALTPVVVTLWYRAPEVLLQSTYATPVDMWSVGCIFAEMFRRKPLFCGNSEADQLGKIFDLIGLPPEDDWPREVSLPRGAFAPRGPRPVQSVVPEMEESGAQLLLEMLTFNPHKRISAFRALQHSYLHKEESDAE

In the test the parent is B1. To be noted: with cdk4_mouse Cdk4, P30285.
On to MEHQLLCCEVETIRRAYPDTNLLNDRVLRAMLKTEETCAPSVSYFKCVQKEIVPSMRKIVATWMLEVCEEQKCEEEVFPLAMNYLDRFLSLEPLKKSRLQLLGATCMFVASKMAETIPLTAEKLCIYTDNSIRPEELLQMELLLVNKLKWNLAAMTPHDFIEHFLSKMPEADENKQTIRKHAQTFVALCATDVKFISNPPSMVAAGSVVAAMQGLNLGSPNNFLSCYRTTHFLSRVIKCDPDCLRACQEQIEALLESSLRQAQQNVDPKATEEEGEVEEEAGLACTPTDVRDVDI [K114A], for which the “effect of a mutation on the interaction” value is “disrupting interaction”.
